# Measurements as given in patent US20200109211A1 (ELSALYS BIOTECH, published 2020).
# T1: recombinant human CD160 protein, soluble form, with a C-terminal tag of 6 histidine residues (R&D SYSTEMS) (human, UniProt O95971 27-159, limits assumed, biotinylated with EZ-Link sulfo-NHS-LC-biotin for BLI and ELISA; not biotinylated when immobilised on the CM5 chip for SPR)
# T1 construct: domain: soluble form; Bought protein; also called hCD160-his; biotinylated CD160
# T1 sequence: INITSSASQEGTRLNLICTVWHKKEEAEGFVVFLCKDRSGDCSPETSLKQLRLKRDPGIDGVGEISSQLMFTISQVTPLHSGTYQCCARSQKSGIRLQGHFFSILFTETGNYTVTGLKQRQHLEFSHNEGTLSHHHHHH
# T2: human CD160 (CD160 GPI isoform) on cells (human, UniProt O95971 25-159, GPI anchor)
# T2 construct: whole, on cells; Used for all cells said to carry human CD160: transfected CHO-S and E300 cells and cells that carry it naturally (YT2C2, blood NK, CD8+ T, T CD4, CLL cells); also called hCD160; CHO-S-hCD160 (clone 2G10)
# T2 sequence (looked up): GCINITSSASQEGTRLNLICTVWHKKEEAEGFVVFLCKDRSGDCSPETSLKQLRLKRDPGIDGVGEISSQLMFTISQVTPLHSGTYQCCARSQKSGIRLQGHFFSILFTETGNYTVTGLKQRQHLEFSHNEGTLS
# B1: D12 IgG4 S228P/R409K (antibody)
# heavy: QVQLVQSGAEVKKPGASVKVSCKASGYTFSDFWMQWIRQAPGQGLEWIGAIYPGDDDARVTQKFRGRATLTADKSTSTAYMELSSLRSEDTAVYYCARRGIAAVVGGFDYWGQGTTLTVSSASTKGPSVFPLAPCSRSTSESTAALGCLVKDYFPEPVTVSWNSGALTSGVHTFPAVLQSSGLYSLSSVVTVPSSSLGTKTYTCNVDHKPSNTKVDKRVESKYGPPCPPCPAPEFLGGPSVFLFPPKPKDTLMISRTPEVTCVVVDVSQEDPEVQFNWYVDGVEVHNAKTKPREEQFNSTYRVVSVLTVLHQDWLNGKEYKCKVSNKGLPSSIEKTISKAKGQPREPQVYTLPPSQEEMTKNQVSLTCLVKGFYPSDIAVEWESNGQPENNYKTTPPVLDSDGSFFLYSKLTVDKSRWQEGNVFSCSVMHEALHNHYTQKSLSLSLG
# light: EIVLTQSPATLSLSPGERATLSCRASQSISNHLHWYQQKPGQAPRLLIKYASQSISGIPARFSGSGSGTDFTLTISSLEPEDFAVYFCQQSNSWPLTFGGGTKVEIKRTVAAPSVFIFPPSDEQLKSGTASVVCLLNNFYPREAKVQWKVDNALQSGNSQESVTEQDSKDSTYSLSSTLTLSKADYEKHKVYACEVTHQGLSSPVTKSFNRGEC
# notes: also called ELB01103; H7 IgG4 D12
# How the values were obtained:
# [1] = molecular target: T1, recombinant human CD160 protein, …; assay: SPR (Biacore), design close to Example 2
# [2] = molecular target: T2, human CD160 (CD160 GPI isoform) on cells; assay: flow cytometry, percentage of labelled YT2C2 NK cells, antibody 0.39-50 nM; the text means better binding
# Protocol: (§1) The binding capacity of the anti-CD160 H7 antibody and of the H7 D12 variant in the IgG4, Fab and Fab-linker Fab format was evaluated during the labelling of surface CD160 expressed naturally on a clone of NK cell line (YT2C2), by measuring the percentage of cell labelled=percentage of binding (see FIG. 1C). For this, 2×10⁺⁵ YT2C2 cells were labelled with increasing concentration of antibodies (from 50 nM to 0.39 nM) and also with the appropriate control isotype. […] In FIG. 1C, IgG4 variants ELB01103 and ELB01104 bind more efficiently to the YT2C2 cells than the H7 IgG4 ELB01101 (which results in a EC₅₀ increased by a factor of 10 compared with H7 IgG4). This is also true for the Fab-linker-Fab format ELB01132. By contrast Fab format ELB01122 bind less efficiently to the YT2C2 cells than the H7 IgG4 ELB01101 (which results in a EC₅₀ decreased by a factor of 2 compared with H7 IgG4). This is certainly due to the monovalency of the Fab format.
# [3] = molecular target: T1, recombinant human CD160 protein, …; assay: BLI (repeats Table 7)
# [4] = molecular target: T2, human CD160 (CD160 GPI isoform) on cells; assay: flow cytometry, percentage of labelled YT2C2 NK cells (2x10^5 cells), antibody 0.39 to 50 nM [panel C]
# Protocol: as §1
# [5] = molecular target: T2, human CD160 (CD160 GPI isoform) on cells; assay: flow cytometry on CHO-hCD160 transfectants
# In short: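 Recombinant CHO-S-hCD160 cells (clone 2G10) and non-transfected CHO-S cells (5×10^5) were labelled with 2 μg of each antibody or matching isotype control. Binding was read by flow cytometry as median fluorescence index.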
# [6] = molecular target: T1, recombinant human CD160 protein, …; assay: BLI
# [7] = molecular target: T1, recombinant human CD160 protein, …; assay: BLI, biotinylated CD160 at 10 nM on streptavidin sensor, antibody 3.13-100 nM
# Protocol: The dissociation constants and the association (kₒₙ) and dissociation (kdis) rate constants for each antibody were calculated by applying a 1:1 interaction model, with overall mathematical modelling of curves (fit) (Rmax bound by the sensor) on the ForteBio 9.0 data analysis software.
binder,measurement,setting,value
B1,Gain in KD/respective IgG,[1],3.1 fold
same,Kd,[1],4.2 nM
same,koff,[1],0.00122 s⁻¹
same,kon,[1],292000 M⁻¹ s⁻¹
same,"EC50, factor against H7 IgG4 (ELB01101)",[2],10 fold
same,Kd,[3],1.52 nM
same,koff,[3],0.000752 s⁻¹
same,kon,[3],494000 M⁻¹ s⁻¹
same,EC50 (read off the curve),[4],~3 nM
same,"median fluorescence, factor against H7 IgG4 ELB01101",[5],2 fold
same,Gain in KD/respective IgG,[6],1.7 fold
same,Kd,[7],1.52 nM
same,koff,[7],0.000752 s⁻¹
same,kon,[7],494000 M⁻¹ s⁻¹
